From US20250163410 come the findings set out here.

The test system of the data set is VchCAST TnsB transposase (Tn6677; assayed with TnsA-TnsC and TniQ-Cascade) (Vibrio cholerae). As to the kind of experiment: cell_activity. As to conditions: T-RL; for binding signal: no IPTG.

Consider “AATGTTGTTGATGCAACCATAAAGTGATATTTAATAATTATTTATAATCAGCAACTTAACCACAAAACAACCATATATTCATATCTCACAAAACAACCATAAGTTGATATTTTTGTGAATCGAGTATTTCAGCAAAACTACTGCAGTAAGAA (double strand) [Left end variant 3243]”, for which the binding signal (log2 fold vs WT) (second replicate -1.5930) was -2.53. The sequence “ACATTTGTTGATACAACCATAAAATGATAATTACACCCATAAATTGATAATTATCACACCCATAAATTGATATTGCCTCTGATCATAAATATATAAATTAATTATTAAATTAGTCAGGCACCGACAC (double strand) [Right end hyperactive 2692]” displayed a binding signal of 2.24 fold vs WT. As to “ACATTTGTTGATACAACCATAAAATCATAATTACACCCATAAATTGATAATTATCACACCCATAAATTGATATTGCCTCTGATCATAGTCAGACCAACATTGCTACGACCCGTATTCGCACCGACAC (double strand) [Right end variant 1010]”, the binding signal (log2 fold vs WT) (second replicate -1.5090) is -1.91. The sequence “ACATTTGTTGATACAACCATAAAATGATAATTACACCCATAAATTGATAATTATCACACCCATAAATTGATATTGCCTCTGGCGCTCTGTACCCCGCTCGGTCCTCCCGCGCATCGCGCACCGACAC (double strand) [Right end hyperactive 2698]” came in with a binding signal of 1.59 fold vs WT.

“TTTTGTGTTGAAACAACCATAAAGTGATAACAACGAATCAATTAAAATCATAGGCTTAATCGAAAAACAACCATATATTGATATCTCATAAAACAACCATAAGTTGATATTTTGGTGAAAAGGATATTCCAACCTTCATAGTTTAGTAAGAA (double strand) [Left end hyperactive 4669]” had a binding signal of 1.69 fold vs WT. The same measure, in the same setting: in the case of “ACATTTGTTGATACAACCATAAAATGATAATTACACCCATAAATTGATAATTATCACACCCATAAATTGATATTGCCTCTCCGACCCGGAAGAGGGCGCCTAGAATTGGGAGTGGTCGCACCGACAC (double strand) [Right end hyperactive 2700]” it was 1.72 fold vs WT. Regarding “TGTGGATCCAACCATAAAATGATAATTACACCCATAAATGGATCATTATCACACCCA (double strand) [Right end ORF1c]”, the binding signal (log2 fold vs WT) (second replicate -1.51) was -2.06. As for “TTTTGTGTTGAAACAACCATAAAGTGATATTTACGAATCAATTAAAATCATAGGCTTAATCGAAAAACAACCATATCTTGATATCGCATAAAACAACCATAAGTTGATATTTTGGTGAAAAGGATATTCCAACCTTCATAGTTTAGTAAGAA (double strand) [Left end hyperactive 4667]”, the binding signal was 2.07 fold vs WT. Turning to “AATGTTGTTGATGCAACCATAAAGTGATATTTAATAATTATTTATAATCAGCAACTTAACCACAAAACAACCATATATTGATATCTCACAAAACAACCATAAGTTCATATTTTTGTGAATCGAGTATTTCAGCAAAACTACTGCAGTAAGAA (double strand) [Left end variant 3165]”, where the note is “second replicate -1.3719”, the binding signal (log2 fold vs WT) was -2.25. With “ACATTTGTTGATACAACCATAAAATGATAATTACACCCATAAATTGATAATTATCACACCCATAAATTGATATTGCCTCTGTACGATCCAGTGATCTCCAAGACGCTGCAAGAGTCCGCACCGACAC (double strand) [Right end hyperactive 2702]”, the binding signal was 1.71 fold vs WT.
